The text below walks through data of publication PMC10141581.

The target of test [1] is 14-3-3ζ (UniProt P63104). Briefly: His-tag co-purification after E. coli co-expression. To be noted: reference: HSPB6 wild type (Ser16); sites S16.
The target of test [2] is 14-3-3ζ (UniProt P63104). Briefly: SEC-MALS of homodimer, 50 µM. To be noted: reference: 14-3-3ζ wild type; sites S58. On the technique in general: In gel filtration, larger molecules generally elute earlier.
Another test has as its target FLAG-CRBN (human) (UniProt Q96SW2). Briefly: co-IP; 20 μM purified Myc-14-3-3ζ added to lysate of HEK293T cells expressing FLAG-CRBN (Calyculin A, no phosphatase), 1 h; ANTI-FLAG M2 affinity gel; 50 mM Tris pH 7.5, 150 mM NaCl; Western blot with α-FLAG and α-myc. (In general: In western blotting, separated proteins are transferred to a membrane and probed.)
The target in test [3] is HSPB6-pSer16 (UniProt O14558). Briefly: AUC; sedimentation equilibrium; 14.3, 7.2 and 3.6 μM; 8,000, 10,000 and 15,000 rpm; 5 °C; 50 mM Tris pH 7.4, 150 mM NaCl, 1 mM TCEP; global fit to A + B ↔ AB with fixed masses of a HSPB6 dimer and a 14-3-3ζ dimer.
Test [4] has as its target HSPB6-nhpSer16 (UniProt O14558). The description is as above.
Another test concerns the target 14-3-3ζ WT (human) (UniProt P63104). Briefly: SEC-MALS; 14-3-3ζ variants alone, injected at 50 μM initial concentration; Superdex 200 10/300 GL; 50 mM Tris pH 7.4, 150 mM NaCl, 0.5 mM TCEP; room temperature; dimer to monomers.
Test [5] deals with HSPB6-pSer16 (UniProt O14558). Briefly: SEC-MALS; co-purified 14-3-3ζ/HSPB6 complexes, or purified HSPB6 mixed with 14-3-3ζ; Superdex 200 10/300 GL; 50 mM Tris pH 7.4, 150 mM NaCl, 0.5 mM TCEP; room temperature; samples at 50 μM.
Test [6] addresses HSPB6-nhpSer16 (UniProt O14558). Described as above.
In a further test the target is HSPB6 (Homo sapiens) (UniProt O14558). The conditions noted are these: cited from earlier work.
Sequence of HSPB6 (Homo sapiens) (O14558 whole entry): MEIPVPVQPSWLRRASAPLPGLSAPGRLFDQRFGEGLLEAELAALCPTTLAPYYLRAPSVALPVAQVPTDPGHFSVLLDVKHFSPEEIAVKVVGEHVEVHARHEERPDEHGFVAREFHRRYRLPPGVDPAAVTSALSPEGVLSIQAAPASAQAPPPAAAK

Sequence of HSPB6-pSer16 (O14558 whole entry): as above
Sequence of 14-3-3ζ WT (P63104 1-230): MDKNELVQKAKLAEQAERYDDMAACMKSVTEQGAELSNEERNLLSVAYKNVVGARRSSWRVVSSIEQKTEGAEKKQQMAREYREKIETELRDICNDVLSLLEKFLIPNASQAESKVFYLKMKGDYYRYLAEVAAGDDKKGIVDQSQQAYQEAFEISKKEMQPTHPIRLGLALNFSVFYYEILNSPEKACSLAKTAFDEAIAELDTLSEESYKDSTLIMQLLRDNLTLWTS
Sequence of 14-3-3ζ (from UniProt P63104) (P63104 whole entry): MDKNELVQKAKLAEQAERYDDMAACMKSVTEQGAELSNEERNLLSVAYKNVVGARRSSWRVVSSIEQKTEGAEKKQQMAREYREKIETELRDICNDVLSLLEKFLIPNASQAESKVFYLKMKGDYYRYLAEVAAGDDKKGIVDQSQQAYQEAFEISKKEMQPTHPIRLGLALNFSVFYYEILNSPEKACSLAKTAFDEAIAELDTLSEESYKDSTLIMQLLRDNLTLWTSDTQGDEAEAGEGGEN
Sequence of 14-3-3ζ (from UniProt P63104) 14-3-3ζ pSer58 (genetic code expansion) (P63104 whole entry, change not shown): as the sequence (P63104 whole entry) above
Sequence of 14-3-3ζ (UniProt P63104) (P63104 whole entry): as above
Sequence of myc-14-3-3ζ nhpSer58 (P63104 whole entry): as above
Sequence of FLAG-CRBN (human) (Q96SW2 whole entry): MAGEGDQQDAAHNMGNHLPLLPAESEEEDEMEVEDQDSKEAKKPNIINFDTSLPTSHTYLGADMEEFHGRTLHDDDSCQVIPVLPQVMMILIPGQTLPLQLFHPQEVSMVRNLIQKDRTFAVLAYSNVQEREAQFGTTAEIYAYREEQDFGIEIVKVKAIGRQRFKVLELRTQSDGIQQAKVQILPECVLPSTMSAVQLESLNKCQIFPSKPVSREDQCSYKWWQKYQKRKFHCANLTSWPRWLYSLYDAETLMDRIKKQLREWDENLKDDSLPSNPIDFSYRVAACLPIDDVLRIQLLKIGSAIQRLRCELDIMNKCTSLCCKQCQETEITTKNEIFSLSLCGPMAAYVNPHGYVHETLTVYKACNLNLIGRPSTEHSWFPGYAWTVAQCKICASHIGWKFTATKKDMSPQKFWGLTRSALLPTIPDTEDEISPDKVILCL

Regarding “HSPB6 (small heat shock protein B6) (from UniProt O14558) HSPB6 pSer16 (genetic code expansion)”, in the test with 14-3-3ζ [1], the “binding against the reference” value was “gained”.
With “14-3-3ζ (from UniProt P63104) 14-3-3ζ pSer58 (genetic code expansion)”, the “binding against the reference” value with 14-3-3ζ [2] is listed as “lost”.
The substance “myc-14-3-3ζ nhpSer58 (from UniProt P63104 1-245) (natural protein)” displayed a fold co-immunoprecipitated relative to myc-14-3-3ζ WT or pSer58 in the test with FLAG-CRBN (human) of 10 fold.
“14-3-3ζ WT (from UniProt P63104 1-230) (natural protein)”: the values for the equilibrium dissociation constant (Kd) in the test with HSPB6-pSer16 [3] and with HSPB6-nhpSer16 [4] were 92 nM and 120 nM, respectively. Moreover, the stoichiometry N (as a rule, a count of units in the complex or per binding partner) in the test with 14-3-3ζ WT (human) amounted to 2. The stoichiometry N (14-3-3ζ chains per HSPB6 chain (2:2)) in the test with HSPB6-pSer16 [5] and with HSPB6-nhpSer16 [6] was 1 throughout.
In the case of 14-3-3ζ (from UniProt P63104), the equilibrium dissociation constant (Kd) (usually the concentration at which binding is half-saturated) with HSPB6 (Homo sapiens) was 560 nM.
